Experimental data as given in US20190153113A1, “CD39 VASCULAR ISOFORM TARGETING AGENTS” (INNATE PHARMA, priority 2015, published 2019).

Experiments:
CD39 = target: T1, CD39 (Homo sapiens, UniProt P49961); assay: Inhibition of CD39 enzymatic activity in Ramos cells, AMP production by Maldi TOF mass spectrometry; assay type: cell-based; details: Ramos cells, ARL at 100 nM, Example 7
T1 construct: cells that endogenously express CD39 at their surface, e.g. regulatory T (TReg) cells, B cells, cancer cells, lymphoma cells (e.g. Ramos cells); endogenous in cells; host or cells: Ramos human lymphoma cells
T1 sequence (P49961 1-510): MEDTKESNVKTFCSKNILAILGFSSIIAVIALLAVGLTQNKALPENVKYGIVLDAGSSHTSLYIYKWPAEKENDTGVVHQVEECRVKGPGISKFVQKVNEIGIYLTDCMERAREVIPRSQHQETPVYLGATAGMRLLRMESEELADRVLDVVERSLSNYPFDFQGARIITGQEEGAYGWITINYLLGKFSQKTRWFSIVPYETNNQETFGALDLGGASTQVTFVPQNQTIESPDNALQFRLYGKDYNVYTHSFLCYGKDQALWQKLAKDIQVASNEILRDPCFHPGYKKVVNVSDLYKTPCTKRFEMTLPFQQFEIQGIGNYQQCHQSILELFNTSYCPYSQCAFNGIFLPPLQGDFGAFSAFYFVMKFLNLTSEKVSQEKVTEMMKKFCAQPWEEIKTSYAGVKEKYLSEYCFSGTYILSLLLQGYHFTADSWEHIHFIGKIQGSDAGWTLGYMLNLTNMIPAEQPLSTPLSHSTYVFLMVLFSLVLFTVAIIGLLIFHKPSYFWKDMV
Protocol: The inhibition of CD39 enzymatic activity by antibodies was evaluated by Maldi TOF mass spectrometry (production of AMP). This assay represents an assay that is relatively insensitive to down-modulation of CD39 expression. […] After washes, cells were incubated with anti-CD39 antibodies, isotype control, or ARL and 50 μM ATP for 30 minutes at 4° C. in PBS. AMP generated is quantified in supernatants by Maldi TOP.
The inhibition of CD39 enzymatic activity by antibodies was evaluated by Maldi TOF mass spectrometry (production of AMP). Briefly, 10^5 Ramos human lymphoma cells were incubated overnight at 37° C. with anti-CD39 antibodies or a chemical CD39 inhibitor (ARL 100 μM). After washes, cells were incubated with anti-CD39 antibodies, isotype control, or ARL and 50 μM ATP for 30 minutes at 4° C. in PBS. AMP generated is quantified in supernatants by Maldi TOP. Antibodies were used at 33 nM and ARL at […].

[1] = target: T2, Human CD39 (vascular CD39, NTPDase1, ENTPD1) expressed at the cell surface (human, UniProt P49961 1-510); assay: flow cytometry on Ramos cells, antibody at 10 µg/ml, GAM-PE
T2 construct: also called huCD39; HEK-huCD39
T2 sequence: T1 sequence (P49961 1-510)

[2] = target: T3, Recombinant human CD39-L3 (NTPDase3, ENTPD3) (human, UniProt O75355 44-485, limits assumed); assay: ELISA, recombinant isoform coated at 500 ng/ml or 1 µg/ml
T3 construct: Coated in ELISA
T3 sequence: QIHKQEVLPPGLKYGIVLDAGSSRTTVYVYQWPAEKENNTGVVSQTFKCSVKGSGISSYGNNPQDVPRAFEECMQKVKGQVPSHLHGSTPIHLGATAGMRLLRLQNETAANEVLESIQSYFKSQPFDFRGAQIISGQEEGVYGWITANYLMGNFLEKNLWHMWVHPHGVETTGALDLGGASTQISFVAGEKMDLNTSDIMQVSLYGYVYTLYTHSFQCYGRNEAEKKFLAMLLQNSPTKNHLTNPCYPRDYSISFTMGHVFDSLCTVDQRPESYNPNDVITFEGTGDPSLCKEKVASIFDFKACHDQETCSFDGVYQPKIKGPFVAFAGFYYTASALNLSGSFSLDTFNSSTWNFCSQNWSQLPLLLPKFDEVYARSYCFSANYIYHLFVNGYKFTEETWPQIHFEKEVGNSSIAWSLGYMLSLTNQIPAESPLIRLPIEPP
Protocol: (§1) Wells were washed in TBS Tween 20, and further saturated 2H at RT in TBS Blocking buffer. Dose range concentration of primary antibody was incubated in TBS blocking buffer for 2h at RT. Wells were washed in TBS Tween 20. […] Optical density was measured on Enspire at OD=450.

[3] = target: T4, Recombinant human CD39-L4 (NTPDase5, ENTPD5) (human, UniProt O75356 25-428); assay: as above
T4 construct: Coated in ELISA
T4 sequence: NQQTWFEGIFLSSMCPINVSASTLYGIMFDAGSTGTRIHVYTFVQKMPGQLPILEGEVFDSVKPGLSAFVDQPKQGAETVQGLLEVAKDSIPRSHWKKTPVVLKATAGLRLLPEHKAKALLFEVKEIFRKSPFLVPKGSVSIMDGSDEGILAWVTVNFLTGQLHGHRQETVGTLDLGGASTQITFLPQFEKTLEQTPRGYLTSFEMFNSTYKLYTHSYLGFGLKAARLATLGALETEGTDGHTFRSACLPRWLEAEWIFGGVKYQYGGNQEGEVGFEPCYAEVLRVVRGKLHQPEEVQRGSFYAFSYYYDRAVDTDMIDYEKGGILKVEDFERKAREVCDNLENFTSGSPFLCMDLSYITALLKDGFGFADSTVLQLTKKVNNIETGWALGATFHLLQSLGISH
Protocol: as §1

[4] = target: T5, Recombinant human CD39-L2 (NTPDase6, ENTPD6) (human, UniProt O75354 61-484, limits assumed); assay: as above
T5 construct: Coated in ELISA
T5 sequence: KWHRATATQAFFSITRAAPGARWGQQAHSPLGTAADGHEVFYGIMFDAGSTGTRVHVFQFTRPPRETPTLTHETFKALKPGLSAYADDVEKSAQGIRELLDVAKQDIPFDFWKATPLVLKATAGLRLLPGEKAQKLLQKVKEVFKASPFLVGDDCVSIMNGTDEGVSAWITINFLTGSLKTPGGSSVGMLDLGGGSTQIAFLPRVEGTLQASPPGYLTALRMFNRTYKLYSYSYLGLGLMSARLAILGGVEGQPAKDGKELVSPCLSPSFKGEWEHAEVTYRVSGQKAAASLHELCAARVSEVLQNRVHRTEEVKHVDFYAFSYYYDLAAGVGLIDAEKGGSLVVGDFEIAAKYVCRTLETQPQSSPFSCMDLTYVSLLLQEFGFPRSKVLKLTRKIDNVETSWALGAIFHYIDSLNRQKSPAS
Protocol: as §1

[5] = target: T5, Recombinant human CD39-L2 (NTPDase6, …); assay: ELISA on coated RechuCD39-L2, OD 450 nm [bottom panel Mouse IgG2a I-391]
Protocol: as §1

[6] = target: T3, Recombinant human CD39-L3 (NTPDase3, …); assay: ELISA on coated RechuCD39-L3, OD 450 nm [bottom panel Mouse IgG2a I-391]
Protocol: as §1

[7] = target: T6, Recombinant human CD39 protein (vascular isoform), soluble (human, UniProt P49961 38-478); assay: ELISA on coated recombinant human CD39 (RechuCD39), HRP secondary antibody, TMB, OD 450 nm [bottom panel Mouse IgG2a I-391]
T6 construct: they are written under this molecule; also called Rec-huCD39; huCD39 protein; not shown: M2 tag added in the C-terminal part
T6 sequence: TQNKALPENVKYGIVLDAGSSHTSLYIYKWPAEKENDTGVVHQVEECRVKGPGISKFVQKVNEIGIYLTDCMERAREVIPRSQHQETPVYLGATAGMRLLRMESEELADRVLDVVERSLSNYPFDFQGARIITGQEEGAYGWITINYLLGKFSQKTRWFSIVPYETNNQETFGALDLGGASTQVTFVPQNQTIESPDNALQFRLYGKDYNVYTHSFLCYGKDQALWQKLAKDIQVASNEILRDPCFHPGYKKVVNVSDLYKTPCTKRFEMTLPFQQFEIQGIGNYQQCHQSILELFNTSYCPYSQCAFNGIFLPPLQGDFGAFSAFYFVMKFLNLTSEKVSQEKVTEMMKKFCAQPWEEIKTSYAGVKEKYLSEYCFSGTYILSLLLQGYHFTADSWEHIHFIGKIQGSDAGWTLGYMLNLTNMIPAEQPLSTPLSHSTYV
Protocol: as §1

[8] = target: T4, Recombinant human CD39-L4 (NTPDase5, …); assay: ELISA on coated RechuCD39-L4, OD 450 nm [bottom panel Mouse IgG2a I-391]
Protocol: as §1

For CCN(CC)c1ncnc2c1ncn2[C@@H]1O[C@H](COP(=O)(O)OP(=O)(O)C(Br)(Br)P(=O)(O)O)[C@@H](O)[C@H]1O [ARL, reference compound], the “inhibition of AMP generated” value (CD39) was “strong inhibition of AMP generated, but resulted in significantly less CD39 blockade than I-391”.

B1: Antibody I-392, recombinant chimeric human IgG1 with heavy chain N297Q mutation (antibody, V domains shown)
VH: QIQLVQSGPEVKKPRETVKISCKASGYTFTHYGMNWVKQAPGKGLKWMGWINTYTGEPTYADDFKGRFAFSLEASASTAYLQINNLKNEDTATYFCARRRYEGNYVFYYFDYWGQGTTLTVSS
VL: DIQMTQSPASLSASVGETVTITCRASENIYSYFSWYQQKQGKSPQLLVYTAKTLAEGVPSRFSGSGSGTQFSLKINSLQPEDFGSYYCQHHYVTPYTFGGGTKLEIK
B1: binds [1]; no binding [2]; no binding [3]. B1: no binding [4].

B2: Antibody I-391 with Fc domain of mouse IgG2a isotype (MOGA) (antibody, V domains shown)
VH: QIQLVQSGPELKKPGETVKISCKASGYTFRNYGMNWVKQAPGKGLKWMGWINTYTGEPTYADDFKGRFAFSLATSASTAYLQISNLKNEDTATYFCARKAYYGSNYYFDYWGQGTTLTVSS
VL: DIVMTQSHKFMSTSVGDRVSITCKASQDVSTAVAWYQQKPGQSPKLLIYSASYRYTGVPDRFTGSGSGTDFTFTISTVQAEDLAVYYCQQHYTTPPYTFGGGTKLEIK
B2 was tested, and the binding result [5] was “no binding (tested: 50 ug/ml)”, the binding result [6] was “no binding (tested: 50 ug/ml)” and the “EC50 (read off the curve)” value [7] was roughly 0.08 mg/L. B2: no binding (tested: 50 ug/ml) [8].
